The results in this text go back to patent US5710022, “Nuclear mitotic phosphoprotein” (Board of Regents of the University of Texas System, dated 1998).

In assay [1] the target is T1, purified p56-RB (Homo sapiens (Human), UniProt P06400).
T1 sequence: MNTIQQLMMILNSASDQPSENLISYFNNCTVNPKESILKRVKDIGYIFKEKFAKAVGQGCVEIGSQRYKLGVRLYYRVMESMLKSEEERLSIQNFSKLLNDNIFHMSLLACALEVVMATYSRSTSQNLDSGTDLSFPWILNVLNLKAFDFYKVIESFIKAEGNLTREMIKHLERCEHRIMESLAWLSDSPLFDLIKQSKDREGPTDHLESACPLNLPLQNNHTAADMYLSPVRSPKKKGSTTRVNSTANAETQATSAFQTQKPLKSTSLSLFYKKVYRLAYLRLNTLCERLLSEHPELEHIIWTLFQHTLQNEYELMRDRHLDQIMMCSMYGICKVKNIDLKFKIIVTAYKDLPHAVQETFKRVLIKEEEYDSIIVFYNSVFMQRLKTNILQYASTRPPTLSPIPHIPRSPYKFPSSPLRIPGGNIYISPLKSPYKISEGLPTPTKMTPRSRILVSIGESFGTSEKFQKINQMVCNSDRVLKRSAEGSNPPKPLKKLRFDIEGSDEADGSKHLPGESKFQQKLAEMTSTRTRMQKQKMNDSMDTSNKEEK
As to the kind of experiment: blot of purified MBP fusion proteins probed with the Rb-sandwich.

For assay [2], the target named is T1, purified p56-RB. As to the kind of experiment: blot of purified GST fusion proteins probed with the Rb-sandwich (figure legend). The source says:
(§1) (A) Two identical blots containing seven purified MBP fusion proteins were probed with either the "Rb-sandwich" (lanes 1–7) or with an antibody to MBP (New England Biolabs) (lanes 8–14). […] (B) Similarly, two identical blots of the purified GST-fusion proteins were probed with either the "Rb-sandwich" (lanes 15–17) or with an antibody to GST (lanes 18–20). […] (C) A diagram of the different constructs used in this experiment. […] (D) Sequence comparison of the Rb-binding region of mitosin with the Rb-binding domain of E2F-1 (in bold letters) and neighboring residues (SEQ. ID NOS: 3 and 4). […] Dashed lines indicate conserved residues and solid lines indicate identical residues.

Assay [3] addresses T1, purified p56-RB. The assay can be described thus: blot of purified MBP fusion proteins probed with the Rb-sandwich; the faint band in lane 3 is called an artifact in paragraph 24.
Excerpt: as §1

B1: MBP-10/KN (other)
chain: LAGELQLLLEEIKSSKDQLKELTLENSELKKSLDCMHKDQVEKEGKVREEIAEYQLRLHEAEKKHQALLLDTNKQYEVEIQTYREKLTSKEECLSSQKLEIDLLKSSKEELNNSLKATTQILEELKKTKMDNLKYVNQLKKENERAQGKMKLLIKSCKQLEEEKEILQKELSQLQAAQEKQKTGTVMDTKVDELTTEIKELKETLEEKTKEADEYLDKYCSLLISHEKLEKAKEMLETQVAHLCSQQSKQDSRGSPLLGPVVPGPSPIPSVTEKRLSSGQNKASGKRQRSSGIWENGGGPTPATPESFSKKSKKAVMSGIHPAEDTEGTEFEPEGLPEVVKKGFADIPTGKTSPYILRRTTMATRTSPRLAAQKLALSPLSLGKENLAESSKPTAGGSRSQKVKVAQRSPVDSGTILREPTTKSVPVNNLPERSPTDSPREGLRVKRGRLVPSPKAGLESKGSENCKVQ
As to B1, the binding result with purified p56-RB [1] is on record as “binds”.

B2: MBP-10/NI (other)
chain: LGPVVPGPSPIPSVTEKRLSSGQNKASGKRQRSSGIWENGGGPTPATPESFSKKSKKAVMSGIHPAEDTEGTEFEPEGLPEVVKKGFADIPTGKTSPYILRRTTMATRTSPRLAAQKLALSPLSLGKENLAESSKPTAGGSRSQKVKVAQRSPVDSGTILREPTTKSVPVNNLPERSPTDSPREGLRVKRGRLVPSPKAGLESKGSENCKVQ
B2: the binding result in the assay with purified p56-RB [1] is reported as “binds”.

B3: MBP-T antigen (other)
chain: MDKVLNREESLQLMDLLGLERSAWGNIPLMRKAYLKKCKEFHPDKGGDEEKMKKMNTLYKKMEDGVKYAHQPDFGGFWDATEIPTYGTDEWEQWWNAFNEENLFCSEEMPSSDDEATADSQHSTPPKKKRKVEDPKDFPSELLSFLSHAVFSNRTLACFAIYTTKEKAALLYKKIMEKYSVTFISRHNSYNHNILFFLTPHRHRVSAINNYAQKLCTFSFLICKGVNKEYLMYSALTRDPFSVIEESLPGGLKEHDFNPEEAEETKQVSWKLVTEYAMETKCDDVLLLLGMYLEFQYSFE
As for B3, the binding result in the assay with purified p56-RB [1] is reported as “binds”.

As for MSGIHPAEDTEGTEFEPEGLPEVVKKGFADIPTGKTSPYILRRTTM (other) [GST-1045], in the assay with purified p56-RB [2], the binding result is recorded as “binds”.

B4: MBP-10 (other)
chain: LLQGLDEAKNNYIVLQSSVNGLIQEVEDGKQKLEKKDEEISRLKNQIQDQEQLVSKLSQVEGEHQLWKEQNLELRNLTVELEQKIQVLQSKNASLQDTLEVLQSSYKNLENELELTKMDKMSFVEKVNKMTAKETELQREMHEMAQKTAELQEELSGEKNRLAGELQLLLEEIKSSKDQLKELTLENSELKKSLDCMHKDQVEKEGKVREEIAEYQLRLHEAEKKHQALLLDTNKQYEVEIQTYREKLTSKEECLSSQKLEIDLLKSSKEELNNSLKATTQILEELKKTKMDNLKYVNQLKKENERAQGKMKLLIKSCKQLEEEKEILQKELSQLQAAQEKQKTGTVMDTKVDELTTEIKELKETLEEKTKEADEYLDKYCSLLISHEKLEKAKEMLETQVAHLCSQQSKQDSRGSPLLGPVVPGPSPIPSVTEKRLSSGQNKASGKRQRSSGIWENGGGPTPATPESFSKKSKKAVMSGIHPAEDTEGTEFEPEGLPEVVKKGFADIPTGKTSPYILRRTTMATRTSPRLAAQKLALSPLSLGKENLAESSKPTAGGSRSQKVKVAQRSPVDSGTILREPTTKSVPVNNLPERSPTDSPREGLRVKRGRLVPSPKAGLESKGSENCKVQ
As to B4, in the assay with purified p56-RB [1], the binding result was “binds”.

B5: MBP-10/NB (other)
chain: LLQGLDEAKNNYIVLQSSVNGLIQEVEDGKQKLEKKDEEISRLKNQIQDQEQLVSKLSQVEGEHQLWKEQNLELRNLTVELEQKIQVLQSKNASLQDTLEVLQSSYKNLENELELTKMDKMSFVEKVNKMTAKETELQREMHEMAQKTAELQEELSGEKNRLAGELQLLLEEIKSSKDQLKELTLENSE
Take B5: the binding result in the assay with purified p56-RB [1] was “no binding”.

B6: MBP-10/H (other)
chain: LLQGLDEAKNNYIVLQSSVNGLIQEVEDGKQKLEKKDEEISRLKNQIQDQEQLVSKLSQVEGEHQLWKEQNLELRNLTVELEQKIQVLQSKNASLQDTLEVLQSSYKNLENELELTKMDKMSFVEKVNKMTAKETELQREMHEMAQKTAELQEELSGEKNRLAGELQLLLEEIKSSKDQLKELTLENSELKKSLDCMHKDQVEKEGKVREEIAEYQLRLHEAEKKHQALLLDTNKQYEVEIQTYREKLTSKEECLSSQKLEIDLLKSSKEELNNSLKATTQILEELKKTKMDNLKYVNQLKKENERAQGKMKLLIKSCKQLEEEKEILQKELSQLQAAQEKQKTGTVMDTKVDELTTEIKELKETLEEKTKEADEYLDKYCSLLISHEKLEKAKEMLETQVAHLCSQQSKQDSRGSPLLGPVVPGPSPIPSVTEKRLSSGQNKA
Consider B6, for which the binding result with purified p56-RB [3] was “no binding”.
